Article doi:10.1101/2021.10.06.463369

Biological target: T1, AITR6-His (Arabidopsis thaliana, UniProt Q9FGW7 1-302)
T1 sequence: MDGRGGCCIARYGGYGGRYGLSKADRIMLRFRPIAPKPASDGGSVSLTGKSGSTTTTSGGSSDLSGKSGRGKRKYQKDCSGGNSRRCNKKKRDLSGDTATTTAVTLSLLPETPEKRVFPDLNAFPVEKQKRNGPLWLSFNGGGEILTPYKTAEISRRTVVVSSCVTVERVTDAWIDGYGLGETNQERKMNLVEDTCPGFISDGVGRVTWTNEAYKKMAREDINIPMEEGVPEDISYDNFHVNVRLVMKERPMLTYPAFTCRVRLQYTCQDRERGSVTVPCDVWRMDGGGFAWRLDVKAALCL
Assay: EMSA

B1: F16 (dsDNA)
DNA 1: ACTCATAAAATATGTCTTTGATTTTTTGTAGTAAT
DNA 2: ATTACTACAAAAAATCAAAGACATATTTTATGAGT
B1: no binding.
